B1: Contactin-associated protein-like 2 (Homo sapiens), Q9UHC6-1 (parent)
chain: MQAAPRAGCGAALLLWIVSSCLCRAWTAPSTSQKCDEPLVSGLPHVAFSSSSSISGSYSPGYAKINKRGGAGGWSPSDSDHYQWLQVDFGNRKQISAIATQGRYSSSDWVTQYRMLYSDTGRNWKPYHQDGNIWAFPGNINSDGVVRHELQHPIIARYVRIVPLDWNGEGRIGLRIEVYGCSYWADVINFDGHVVLPYRFRNKKMKTLKDVIALNFKTSESEGVILHGEGQQGDYITLELKKAKLVLSLNLGSNQLGPIYGHTSVMTGSLLDDHHWHSVVIERQGRSINLTLDRSMQHFRTNGEFDYLDLDYEITFGGIPFSGKPSSSSRKNFKGCMESINYNGVNITDLARRKKLEPSNVGNLSFSCVEPYTVPVFFNATSYLEVPGRLNQDLFSVSFQFRTWNPNGLLVFSHFADNLGNVEIDLTESKVGVHINITQTKMSQIDISSGSGLNDGQWHEVRFLAKENFAILTIDGDEASAVRTNSPLQVKTGEKYFFGGFLNQMNNSSHSVLQPSFQGCMQLIQVDDQLVNLYEVAQRKPGSFANVSIDMCAIIDRCVPNHCEHGGKCSQTWDSFKCTCDETGYSGATCHNSIYEPSCEAYKHLGQTSNYYWIDPDGSGPLGPLKVYCNMTEDKVWTIVSHDLQMQTPVVGYNPEKYSVTQLVYSASMDQISAITDSAEYCEQYVSYFCKMSRLLNTPDGSPYTWWVGKANEKHYYWGGSGPGIQKCACGIERNCTDPKYYCNCDADYKQWRKDAGFLSYKDHLPVSQVVVGDTDRQGSEAKLSVGPLRCQGDRNYWNAASFPNPSSYLHFSTFQGETSADISFYFKTLTPWGVFLENMGKEDFIKLELKSATEVSFSFDVGNGPVEIVVRSPTPLNDDQWHRVTAERNVKQASLQVDRLPQQIRKAPTEGHTRLELYSQLFVGGAGGQQGFLGCIRSLRMNGVTLDLEERAKVTSGFISGCSGHCTSYGTNCENGGKCLERYHGYSCDCSNTAYDGTFCNKDVGAFFEEGMWLRYNFQAPATNARDSSSRVDNAPDQQNSHPDLAQEEIRFSFSTTKAPCILLYISSFTTDFLAVLVKPTGSLQIRYNLGGTREPYNIDVDHRNMANGQPHSVNITRHEKTIFLKLDHYPSVSYHLPSSSDTLFNSPKSLFLGKVIETGKIDQEIHKYNTPGFTGCLSRVQFNQIAPLKAALRQTNASAHVHIQGELVESNCGASPLTLSPMSSATDPWHLDHLDSASADFPYNPGQGQAIRNGVNRNSAIIGGVIAVVIFTILCTLVFLIRYMFRHKGTYHTNEAKGAESAESADAAIMNNDPNFTETIDESKKEWLI
partner: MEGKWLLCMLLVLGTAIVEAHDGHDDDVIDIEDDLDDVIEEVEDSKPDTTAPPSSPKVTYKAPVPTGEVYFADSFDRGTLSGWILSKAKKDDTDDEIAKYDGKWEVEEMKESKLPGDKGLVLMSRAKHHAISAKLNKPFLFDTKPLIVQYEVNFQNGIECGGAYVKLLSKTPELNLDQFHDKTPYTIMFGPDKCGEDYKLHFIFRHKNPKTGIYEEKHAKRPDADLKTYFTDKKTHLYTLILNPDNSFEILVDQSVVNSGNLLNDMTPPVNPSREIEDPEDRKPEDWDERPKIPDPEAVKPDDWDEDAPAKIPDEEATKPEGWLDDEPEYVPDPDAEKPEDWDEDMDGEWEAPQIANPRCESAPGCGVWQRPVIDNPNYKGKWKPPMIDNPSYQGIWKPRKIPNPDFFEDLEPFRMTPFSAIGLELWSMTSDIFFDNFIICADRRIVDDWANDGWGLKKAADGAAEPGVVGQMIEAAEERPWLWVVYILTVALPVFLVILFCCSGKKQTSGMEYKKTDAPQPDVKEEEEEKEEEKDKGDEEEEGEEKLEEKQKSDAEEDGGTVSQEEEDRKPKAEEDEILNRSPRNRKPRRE

This assay covers variants of B1. To be noted: with calx_human CANX.
On to D1129H, for which the “effect of a mutation on the interaction” value is recorded as “increasing interaction strength”.
